Patent US20240228562A1, “NOVEL LIPOCALIN MUTEINS SPECIFIC FOR CONNECTIVE TISSUE GROWTH FACTOR (CTGF)” (PIERIS PHARMACEUTICALS GMBH, priority 2021, published 2024)
Numbering of substitutions follows the chain as printed.

T1: huWISP-2 (Homo sapiens, UniProt O76076)
T1 sequence (O76076 24-250): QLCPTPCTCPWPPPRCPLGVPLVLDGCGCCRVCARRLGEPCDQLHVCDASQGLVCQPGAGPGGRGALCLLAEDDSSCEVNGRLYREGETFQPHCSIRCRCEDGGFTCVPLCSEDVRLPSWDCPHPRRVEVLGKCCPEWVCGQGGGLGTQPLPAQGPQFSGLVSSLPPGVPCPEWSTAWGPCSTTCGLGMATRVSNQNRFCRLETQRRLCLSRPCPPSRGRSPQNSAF

T2: huCYR61 (Homo sapiens, UniProt O00622)
T2 sequence (O00622 25-381): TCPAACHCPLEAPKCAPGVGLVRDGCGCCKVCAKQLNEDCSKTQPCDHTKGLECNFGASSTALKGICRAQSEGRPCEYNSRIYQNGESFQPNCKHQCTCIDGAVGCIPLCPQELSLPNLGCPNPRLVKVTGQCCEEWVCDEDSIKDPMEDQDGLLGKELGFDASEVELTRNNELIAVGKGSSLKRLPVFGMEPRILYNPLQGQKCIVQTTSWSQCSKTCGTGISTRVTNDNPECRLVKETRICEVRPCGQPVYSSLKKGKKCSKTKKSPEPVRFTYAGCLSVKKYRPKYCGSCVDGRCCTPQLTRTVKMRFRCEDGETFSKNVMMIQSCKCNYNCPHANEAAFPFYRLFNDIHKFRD

T3: huWISP-1 (Homo sapiens, UniProt O95388)
T3 sequence (O95388 23-367): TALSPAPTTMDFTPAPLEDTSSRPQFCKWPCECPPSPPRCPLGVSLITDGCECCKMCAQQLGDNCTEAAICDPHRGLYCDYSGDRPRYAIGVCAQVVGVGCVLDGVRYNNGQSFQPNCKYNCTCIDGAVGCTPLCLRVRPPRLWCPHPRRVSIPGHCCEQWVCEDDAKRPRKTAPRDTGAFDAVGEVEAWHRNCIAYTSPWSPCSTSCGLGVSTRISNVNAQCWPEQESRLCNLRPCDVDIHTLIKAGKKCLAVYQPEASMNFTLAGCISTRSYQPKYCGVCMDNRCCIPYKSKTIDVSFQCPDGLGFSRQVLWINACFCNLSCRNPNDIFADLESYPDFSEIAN

B1: SEQ ID NO: 3: parent CTGF-binding hNGAL lipocalin mutein (protein)
chain: QDSTSDLIPAPPLSKVPLQQNFQDNQFHGKWYVVGRAGNNRLREDKDPPKMWATIYELKEDKSYNVTHVHFMTKKCRYIIDTFVPGSQPGEFTLGAIKSGPGMTSPLVRIVSTNYNQHAMVFFKWVNQNREWFTITLYGRTKELTSELKENFIRFSKSLGLPENHIVFPVPIDQCIDG
modifications: lipocalin mutein
B2: SEQ ID NO: 25: parent CTGF-binding hNGAL lipocalin mutein (protein)
chain: QDSTSDLIPAPPLSKVPLQQNFQDNQFHGKWYVVGMAGNFRLREDKDPSKMGATIYELKEDKSYNVTQVQFDDKKCLYVIETFVPGSQPGEFTLGAIKSFPGFTSQLVRVVSTNYNQHAMVFFKKVYQNREVFWITLYGRTKELTSELKENFIRFSKSLGLPENHIVFPVPIDQCIDG
modifications: lipocalin mutein
B3: SEQ ID NO: 29: parent CTGF-binding hNGAL lipocalin mutein (protein)
chain: QDSTSDLIPAPPLSKVPLQQNFQDNQFHGKWYVVGWAGNIKLREDKDPFKMSATIYELKEDKSYNVTEVVFEQKKCHYIIKTFVPGSQPGEFTLGDIKSPPGETSSLVRVVSTNYNQHAMVFFKKVFQNREFFWITLYGRTKELTSELKENFIRFSKSLGLPENHIVFPVPIDQCIDG
modifications: lipocalin mutein
B4: SEQ ID NO: 74: fusion protein comprising two CTGF-binding lipocalin muteins (protein)
chain: QDSTSDLIPAPPLSKVPLQQNFQDNQFQGKWYVVGLAGNAILREDKQPAKMFATIYELKEDKSYDVTSVRFEAKSCKYTIKTFVPGSQPGEFTAGYIKSAPGQTSTLVRVVSTNYNQHAMVFFKHVTQNREIFVITLYGRTKELTSELKENFIRFSKSLGLPENHIVFPVPIDQCIDGGGGGSGGGGSGGGGSQDSTSDLIPAPPLSKVPLQQNFQDNQFQGKWYVVGWAGNVKLREDKQPQKMSATIYELKEDKSYDVTEVVFEQKKCHYIIKTFVPGSQPGEFTAGDIKSPPGYTSSLVRVVSTNYNQHAMVFFKKVSQNREFFWITLYGRTKELTSELKENFIRFSKSLGLPENHIVFPVPIDQCIDG
modifications: fusion protein
B5: SEQ ID NO: 23: optimized CTGF-binding hNGAL lipocalin mutein (protein)
chain: QDSTSDLIPAPPLSKVPLQQNFQDNQFQGKWYVVGVAGNAILRPDKQPAKMFATIYELKEDKSYDVTSVRFEAKSCKYTIKTFVPGSQPGEFTSGQIKSAPGQTSTLVRVVSTNYNQHAMVFFKHVSQNREIFVITLYGRTKELTSELKENFIRFSKSLGLPENHIVFPVPIDQCIDG
modifications: lipocalin mutein
B6: SEQ ID NO: 15: optimized CTGF-binding hNGAL lipocalin mutein (protein)
chain: B5 chain with V36L, P44E, S94A, Q96Y, S127T
modifications: lipocalin mutein
B7: SEQ ID NO: 9: parent CTGF-binding hNGAL lipocalin mutein (protein)
chain: B5 chain with Q28H, V36L, A40K, P44I, K74R, K77S, S94A, Q96N, I132T
modifications: lipocalin mutein
B8: SEQ ID NO: 7: parent CTGF-binding hNGAL lipocalin mutein (protein)
chain: QDSTSDLIPAPPLSKVPLQQNFQDNQFHGKWYVVGLAGNYGLRTDKRPSKMFATIYELKEDKSYDVTSVRFEQERCHYTIRTFVPGSQPGEFTTGSIKSRPGQTSSLVRVVSTNYNQHAMVFFKSVIQNREYFAITLYGRTKELTSELKENFIRFSKSLGLPENHIVFPVPIDQCIDG
modifications: lipocalin mutein

Molecular target: T1, huWISP-2
Experiment: Specificity ELISA (CCN proteins), huWISP-2
Format: binding
Details: coated 1 μg/ml; assessed when human CTGF signal approached saturation
Description: (§1) Binding of muteins to closely related proteins of CTGF was tested by an ELISA assay. In detail, a 384-well plate suitable for fluorescence measurements (Greiner FLUOTRAC™ 600, black flat bottom, high-binding) was coated with 20 μl of human CTGF or the other members of the CCN protein family at a concentration of 1 μg/ml in PBS over night at 4° C. After washing with PBS with 0.05% Tween 20, wells were blocked with 100 μl blocking buffer containing 0.1% Tween 20 and 2% BSA (PBS-T/BSA) for 1 h at room temperature. 20 μl of serially diluted muteins starting at 1000 nM were incubated in PBS-T/BSA for 1 h at room temperature (RT).
(§2) The residual supernatants were discarded and 20 μl HRP-labeled anti-NGAL or anti-Strep-Tag antibody was added at a predetermined optimal concentration in PBS-T/BSA and incubated for 1 h at RT. After washing, 20 μl fluorogenic HRP substrate (QuantaBlu, Thermo) was added to each well, and the reaction was allowed to proceed for 2 to 60 minutes. The fluorescence intensity of every well on the plate was read using a fluorescence microplate reader (Tecan). When the signal for human CTGF approached saturation, the cross reactivity to the other proteins was assessed.

Row | ELISA binding to huWISP-2 | Molecule
1 | No binding | B1
2 | No binding | B2
3 | No binding | B3
4 | No binding | B4
5 | No binding | B5
6 | No binding | B6
7 | No binding | B7
8 | No binding | B8

Molecular target: T4, human CTGF (Homo sapiens, UniProt P29279, H83D)
T4 construct: purchased Creative Biomart
T4 sequence (P29279 with tags, fused parts or gaps H83D): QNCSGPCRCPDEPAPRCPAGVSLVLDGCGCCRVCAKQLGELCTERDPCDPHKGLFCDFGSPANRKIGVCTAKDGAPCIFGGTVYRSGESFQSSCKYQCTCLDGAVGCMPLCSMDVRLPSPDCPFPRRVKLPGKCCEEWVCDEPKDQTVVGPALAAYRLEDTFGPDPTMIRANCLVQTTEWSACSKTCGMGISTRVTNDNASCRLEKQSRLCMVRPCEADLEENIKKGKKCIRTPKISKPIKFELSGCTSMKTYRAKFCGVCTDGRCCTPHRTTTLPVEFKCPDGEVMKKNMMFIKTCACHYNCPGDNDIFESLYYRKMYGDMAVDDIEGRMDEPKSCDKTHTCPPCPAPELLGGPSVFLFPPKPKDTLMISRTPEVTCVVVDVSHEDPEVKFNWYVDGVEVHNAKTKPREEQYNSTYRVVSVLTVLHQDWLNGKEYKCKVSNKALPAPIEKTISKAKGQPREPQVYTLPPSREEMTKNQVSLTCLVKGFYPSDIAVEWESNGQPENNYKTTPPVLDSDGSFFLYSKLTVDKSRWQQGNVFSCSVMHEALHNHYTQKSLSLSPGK
Experiment: SPR binding kinetics and affinity, human CTGF
Details: 25° C., 1:1 binding model
Outline: (§3)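 Biacore SPR at 25 °C; CTGF either Fc-captured via anti-human IgG (HBS-EP+) or amine-coupled to CM5 (300–1100 RU). Muteins injected 180 s contact, 900–3600 s dissociation, 30 μL/min.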

Row | Kd | human CTGF kon | Molecule
9 | 37.5 nM | 200000 M⁻¹ s⁻¹ | B1
10 | 9.27 nM | 26800 M⁻¹ s⁻¹ | B2
11 | 11.2 nM | 100000 M⁻¹ s⁻¹ | B3
12 |  | 122000 M⁻¹ s⁻¹ | B5
13 |  | 81700 M⁻¹ s⁻¹ | B6
14 | 12.8 nM | 79800 M⁻¹ s⁻¹ | B7
15 | 60.2 nM | 97600 M⁻¹ s⁻¹ | B8

Molecular target: T5, human CTGF (Homo sapiens, UniProt P29279)
T5 construct: purchased Creative Biomart
T5 sequence (P29279 with tags, fused parts or gaps H83D): as above
Experiment: SPR binding kinetics and affinity, human CTGF
Details: 25° C., 1:1 binding model
Outline: as §3

Row | human CTGF koff | Molecule
16 | 0.00749 s⁻¹ | B1
17 | 0.000248 s⁻¹ | B2
18 | 0.00112 s⁻¹ | B3
19 | 9.42e-06 s⁻¹ | B5
20 | 4.47e-05 s⁻¹ | B6
21 | 0.00102 s⁻¹ | B7
22 | 0.00587 s⁻¹ | B8

Tested on: not listed separately
Experiment: Thermal stability assessment by nanoDSC
Format: physicochemical
Details: 1 mg/mL in PBS, scan 25-100° C. at 1° C./min
Outline: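 CTGF-specific lipocalin muteins at 1 mg/mL in PBS scanned from 25 to 100° C at 1° C/min by capillary nano-DSC. Where several transitions occur, the Tm of the major unfolding event is reported, along with onset temperature. Some muteins were expressed in E. coli, others in CHO cells.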

Row | Molecule | ONSET MELTING
23 | B4 | 62 °C
24 | B5 | 55 °C
25 | B6 | 59 °C

Same assay, conditions: 1 mg/mL in PBS, scan 25-100° C. at 1° C./min, major transition

Row | Molecule | TM
26 | B1 | 58 °C
27 | B2 | 66 °C
28 | B3 | 76 °C
29 | B4 | 72 °C
30 | B5 | 71 °C
31 | B6 | 73 °C
32 | B7 | 64 °C
33 | B8 | 65 °C

Molecular target: T2, huCYR61
Experiment: Specificity ELISA (CCN proteins), huCYR61
Format: binding
Details: coated 1 μg/ml; assessed when human CTGF signal approached saturation
Description: as §1, §2

Row | ELISA binding to huCYR61 | Molecule
34 | No binding | B1
35 | No binding | B2
36 | No binding | B3
37 | No binding | B4
38 | No binding | B5
39 | No binding | B6
40 | No binding | B7
41 | No binding | B8

Molecular target: T3, huWISP-1
Experiment: Specificity ELISA (CCN proteins), huWISP-1
Format: binding
Details: coated 1 μg/ml; assessed when human CTGF signal approached saturation
Description: as §1, §2

Row | ELISA binding to huWISP-1 | Molecule
42 | No binding | B1
43 | No binding | B2
44 | No binding | B3
45 | No binding | B4
46 | No binding | B5
47 | No binding | B6
48 | No binding | B7
49 | No binding | B8
